Experimental data published in US20140294821A1.

Tests used:
[1] = molecular target: human von Willebrand factor, FVIII-free, plasma derived (human) (UniProt P04275); experiment: SPR (BIAcore), hvWf as ligand, FVIII protein as analyte, N=5
[2] = molecular target: human von Willebrand factor, FVIII-free, plasma derived (human) (UniProt P04275); experiment: SPR (BIAcore), binding to vWF
[3] = molecular target: human von Willebrand factor, FVIII-free, plasma derived (human) (UniProt P04275); experiment: SPR (BIAcore), single-cycle kinetics 0.13-5.0 nM, plasma derived human vWF immobilized by amine coupling, 1:1 model, N=6

rBDD FVIII (recombinant B-domain deleted FVIII lacking Fc moieties) (from UniProt P00451 20-1667; P00451 1668-2351)
Kd [1]: 0.846 nM
koff [1]: 0.00114 s⁻¹
kon [1]: 1.37e+06 M⁻¹ s⁻¹

rFVIIIFc (recombinant B-domain deleted human FVIII-Fc monomer hybrid), drug substance (from UniProt P00451 20-1667; P0DOX5 223-449) (Fc fusion)
Kd [1]: 1.64 nM
koff [1]: 0.00125 s⁻¹
kon [1]: 792000 M⁻¹ s⁻¹
fold difference in affinity (KD) against rBDD FVIII [2]: 2 fold
fold difference in on-rate against rBDD FVIII [2]: 2 fold
fold of KD against BDD FVIII alone [2]: 2 fold
Kd [3]: 0.34 nM
koff [3]: 0.00089 s⁻¹
kon [3]: 2.6e+06 M⁻¹ s⁻¹
